One block for each molecule: values may come before it.
Legend:
[1] = target: Phosphomannose isomerase from T. kodakarensis (T. kodakarensis); assay: SEC
SEC = target: the molecule itself; assay: SEC

stoichiometry N [1]: 2
Molecule: Phosphomannose isomerase from T. kodakarensis (enzyme)

B1: Phosphomannose isomerase from T. barophilus (enzyme, UniProt F0LL70 1-113, looked up)
chain: MKAEIKEFIDRGTYRKAPLFEGELPEGSYAQIVEIKPKQTVPKHYHEKQYELFYIISGQAKLGIEEREYDAKPGDIFLVKPKTVHWVVNKKEEPFRLFVIKLNYFGDDSVWLE
stoichiometry N (SEC): 2
